B1: FCHO1 (parent)
chain: DKLALCHLELTRKLQDLIKDVLRY
B2: TRIB1 (parent)
chain: EIGTSDQIVPEYQEDSDISSFFC

Variants of: B1
Assay: protein stability index of a GFP-peptide fusion (GPS, HEK-293T) (PSI 1-6); higher = more stable
Conditions: c terminus: a fixed tail appended
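Also: lentivirally expressed fusions sorted by FACS into six bins by GFP to DsRed ratio, PSI derived from sequencing read proportions per bin multiplied by bin number.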

Row | Variant | protein stability index
1 | DMLALCHLELTRKLQDLIKDVLRY [K2M] | 3.83
2 | DCLALCHLELTRKLQDLIKDVLRY [K2C] | 3.86
3 | DDLALCHLELTRKLQDLIKDVLRY [K2D] | 3.04
4 | DPLALCHLELTRKLQDLIKDVLRY [K2P] | 1.39
5 | DSLALCHLELTRKLQDLIKDVLRY [K2S] | 2.21
6 | DLLALCHLELTRKLQDLIKDVLRY [K2L] | 2.64
7 | DTLALCHLELTRKLQDLIKDVLRY [K2T] | 1.97
8 | DELALCHLELTRKLQDLIKDVLRY [K2E] | 2.28
9 | DILALCHLELTRKLQDLIKDVLRY [K2I] | 2.57
10 | DALALCHLELTRKLQDLIKDVLRY [K2A] | 1.43
11 | DNLALCHLELTRKLQDLIKDVLRY [K2N] | 1.26
12 | DQLALCHLELTRKLQDLIKDVLRY [K2Q] | 2.45
13 | DHLALCHLELTRKLQDLIKDVLRY [K2H] | 2.72
14 | QKLALCHLELTRKLQDLIKDVLRY [D1Q] | 4.47
15 | YKLALCHLELTRKLQDLIKDVLRY [D1Y] | 2.63
16 | PKLALCHLELTRKLQDLIKDVLRY [D1P] | 4.01
17 | SKLALCHLELTRKLQDLIKDVLRY [D1S] | 2.45

Row | Variant | protein stability index
18 | GKLALCHLELTRKLQDLIKDVLRY [D1G] | 5.1
19 | EKLALCHLELTRKLQDLIKDVLRY [D1E] | 2.15
20 | TKLALCHLELTRKLQDLIKDVLRY [D1T] | 2.77
21 | RKLALCHLELTRKLQDLIKDVLRY [D1R] | 3.61
22 | KKLALCHLELTRKLQDLIKDVLRY [D1K] | 2.37
23 | WKLALCHLELTRKLQDLIKDVLRY [D1W] | 1.41
24 | NKLALCHLELTRKLQDLIKDVLRY [D1N] | 4.01
25 | FKLALCHLELTRKLQDLIKDVLRY [D1F] | 3.44
26 | VKLALCHLELTRKLQDLIKDVLRY [D1V] | 3.12
27 | DKHALCHLELTRKLQDLIKDVLRY [L3H] | 2.12
28 | DKNALCHLELTRKLQDLIKDVLRY [L3N] | 2.25
29 | DKEALCHLELTRKLQDLIKDVLRY [L3E] | 2.3
30 | DKFALCHLELTRKLQDLIKDVLRY [L3F] | 2.93
31 | DKDALCHLELTRKLQDLIKDVLRY [L3D] | 2.09
32 | DKCALCHLELTRKLQDLIKDVLRY [L3C] | 2.51
33 | DKKALCHLELTRKLQDLIKDVLRY [L3K] | 2.23
34 | DKAALCHLELTRKLQDLIKDVLRY [L3A] | 1.44

Variants of: B2
Assay: as above
Conditions: c terminus: native

Row | Variant | protein stability index
35 | EIGTSDQIVPEYQEDSDISSFFD [C23D] | 2.51
36 | EIGTSDQIVPEYQEDSDISSFFN [C23N] | 3.73
37 | EIGTSDQIVPEYQEDSDISSFFK [C23K] | 4.49
38 | EIGTSDQIVPEYQEDSDISSFFG [C23G] | 3.67
39 | EIGTSDQIVPEYQEDSDISSFFM [C23M] | 1.73
40 | EIGTSDQIVPEYQEDSDISSFFT [C23T] | 2.1
41 | EIGTSDQIVPEYQEDSDISSFFS [C23S] | 2.8
42 | EIGTSDQIVPEYQEDSDISSFFI [C23I] | 2.67
43 | EIGTSDQIVPEYQEDSDISSFFW [C23W] | 1.95
44 | EIGTSDQIVPEYQEDSDISSFFA [C23A] | 3.08
45 | EIGTSDQIVPEYQEDSDISSFFV [C23V] | 2.77
46 | EIGTSDQIVPEYQEDSDISSFFR [C23R] | 4.18
47 | EIGTSDQIVPEYQEDSDISSFFH [C23H] | 3.65
48 | EIGTSDQIVPEYQEDSDISSFFY [C23Y] | 2.26
49 | EIGTSDQIVPEYQEDSDISSFFQ [C23Q] | 3.76
50 | EIGTSDQIVPEYQEDSDISSFFE [C23E] | 2.94
51 | EIGTSDQIVPEYQEDSDISSFFF [C23F] | 2.29
52 | EIGTSDQIVPEYQEDSDISSFFL [C23L] | 2.9
53 | EIGTSDQIVPEYQEDSDISSFFP [C23P] | 3.44
54 | EIGTSDQIVPEYQEQSDISSFFC [D15Q] | 2.92
55 | EIGTSDQIVPEYQEVSDISSFFC [D15V] | 2.81

Row | Variant | protein stability index
56 | EIGTSDQIVPEYQEYSDISSFFC [D15Y] | 2.48
57 | EIGTSDQIVPEYQEWSDISSFFC [D15W] | 2.9
58 | EIGTSDQIVPEYQETSDISSFFC [D15T] | 3.4
59 | EIGTSDQIVPEYQESSDISSFFC [D15S] | 3.33
60 | EIGTSDQIVPEYQERSDISSFFC [D15R] | 4.24
61 | EIGTSDQIVPEYQEDSDFSSFFC [I18F] | 2.91
62 | EIGTSDQIVPEYQEDSDHSSFFC [I18H] | 3.69
63 | EIGTSDQIVPEYQEDSDSSSFFC [I18S] | 3.64
64 | EIGTSDQIVPEYQEDSDASSFFC [I18A] | 3.4
65 | EIGTSDQIVPEYQEDSDESSFFC [I18E] | 2.69
66 | EIGTSDQIVPEYQEDSDQSSFFC [I18Q] | 3.9
67 | EIGTSDQIVPEYQEDSDGSSFFC [I18G] | 3.6
68 | EIGTSDQIVPEYQEDSDKSSFFC [I18K] | 4.39
69 | EIGTSDQIVPEYQEDSDMSSFFC [I18M] | 3.29
70 | EIGTSDQIVPEYQEDSDVSSFFC [I18V] | 3.08
71 | EIGTSDQIVPEYQEDSDTSSFFC [I18T] | 3.64
72 | EIGTSDQIVPEYQEDSDDSSFFC [I18D] | 3.36
73 | EIGTSDQIVPEYQEDSDWSSFFC [I18W] | 2.41
74 | EIGTSDQIVPEYQEDSDRSSFFC [I18R] | 4.26
75 | EIGTSDQIVPEYQEDSDNSSFFC [I18N] | 3.75
76 | EIGTSDQIVPEYQEDSDCSSFFC [I18C] | 3.16

Row | Variant | protein stability index
77 | EIGTSDQIVPEYQEDSDPSSFFC [I18P] | 2.88
78 | EIGTSDQIVPEYQEDSDLSSFFC [I18L] | 2.92
79 | EIGTSDQIVPEYQEDSDYSSFFC [I18Y] | 3.25
80 | EIGTSDQIVPEYQEDSDISSCFC [F21C] | 3.5
81 | EIGTSDQIVPEYQEDSDISSYFC [F21Y] | 2.64
82 | EIGTSDQIVPEYQEDSDISSKFC [F21K] | 4.67
83 | EIGTSDQIVPEYQEDSDISSQFC [F21Q] | 4.23
84 | EIGTSDQIVPEYQEDSDISSGFC [F21G] | 3.97
85 | EIGTSDQIVPEYQEDSDISSEFC [F21E] | 4.43
86 | EIGTSDQIVPEYQEDSDISSAFC [F21A] | 3.98
87 | EIGTSDQIVPEYQEDSDISSVFC [F21V] | 3.89
88 | EIGTSDQIVPEYQEDSDISSTFC [F21T] | 4.78
89 | EIGTSDQIVPEYQEDSDISSSFC [F21S] | 4.08
90 | EIGTSDQIVPEYQEDSDISSDFC [F21D] | 3.9
91 | EIGTSDQIVPEYQEDSDISSMFC [F21M] | 3.85
92 | EIGTSDQIVPEYQEDSDISSNFC [F21N] | 4.7
93 | EIGTSDQIVPEYQEDSDISSRFC [F21R] | 3.64
94 | EIGTSDQIVPEYQEDSDISSLFC [F21L] | 3.45
95 | EIGTSDQIVPEYQEDSDISSHFC [F21H] | 4.58
96 | EIGTSDQIVPEYQEDSDISSIFC [F21I] | 3.59

From the supplement of paper PMC10567573
